Experimental data from publication PMC12404759, “Efficacy and safety of a therapeutic humanized FSH-blocking antibody in obesity and Alzheimer’s disease models” (The Journal of Clinical Investigation, 2025).

Experiments:
[1] = molecular target: T1, follicle-stimulating hormone (FSH) (Homo sapiens (Human)., UniProt P01215;P01225); assay: cell-based or functional assay
[2] = molecular target: T1, follicle-stimulating hormone (FSH); assay: protein thermal shift assay; antibody incubated with FSH; right-shift in melting temperature (Tm) of the ligand-binding Fab domain; details: both partners purified

T1 sequence (P01215 25-116, chain 1 of 2): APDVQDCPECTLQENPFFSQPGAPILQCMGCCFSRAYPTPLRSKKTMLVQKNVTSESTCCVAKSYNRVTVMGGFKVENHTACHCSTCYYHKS
T1 sequence (P01225 19-129, chain 2 of 2): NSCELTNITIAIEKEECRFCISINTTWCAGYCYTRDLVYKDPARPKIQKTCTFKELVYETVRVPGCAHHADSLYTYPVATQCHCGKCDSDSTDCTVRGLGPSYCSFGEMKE

B1: MS-Hu6 (antibody, V domains shown)
VH: QVQLQESGPGLVKPSQTLSLTCTVSGFSITSDYAWNWIRQPPGKGLEWIGSIFSSGSINYNPSLKSRVTISRDTSKNQFSLKLSSVTAADTAVYYCARGGTGTDYWGQGTLVTVSS
VL: DIQMTQSPSSLSASVGDRVTITCRASQDISNYLSWYQQKPGKAIKLLIYYTSRLHSGVPSRFSGSGSGTDYTLTISSLQPEDFATYFCQQGHTLPPTFGGGTKVEIK
notes: humanized VH and CH1; heavy chain of the Fab fragment (Hu6-Fab) deposited as PDB 8VZW; hinge and Fc of the full-length IgG; humanized VL and CL; light chain of the Fab fragment (Hu6-Fab) deposited as PDB 8VZW; the chimeric precursor used human IgK-CL; Full-length humanized IgG derived from the murine antibody Hf2 with the CDRs unaltered; The crystal was of the Fab fragment only
[1]
  EC50 based on UCP1 activation in dedifferentiated brown adipocytes (Thermo cells): 3.21 nM
  IC50 for cAMP inhibition in SH-SY5Y human neuroblastoma cells: 2.01 nM
  IC50 of inhibition of cAMP elevation in response to FSH (5 μg/mL) in KGN human ovarian cancer cells: 0.64 nM
[2]
  right-shift in Tm of the Fab domain: ~1.8 °C
